Laboratory results: patent US20220313738A1

Biological target: Jurkat-M663, Jurkat-M665 and Jurkat-M666 (ISD-modified BCMA CARs M663, M665, M666)
Experiment: cell-based or functional assay

Row | Binder | relative ISD-modified CAR positive rate (FACS), days 6, 7 and 8 [%]
1 | wildtype SIV Nef, Q02840 1-223 (protein) MGSSNSKRQQQGLLKLWRGLRGKPGADWVLLSDPLIGQSSTVQEECGKALKKSWGKGKMTPDGRRLQEGDTFDEWDDDEEEVGFPVQPRVPLRQMTYKLAVDFSHFLKSKGGLDGIYYSERREKILNLYALNEWGIIDDWQAYSPGPGIRYPRVFGFCFKLVPVDLHEEARNCERHCLMHPAQMGEDPDGIDHGEVLVWKFDPKLAVEYRPDMFKDMHEHAKR | 41.2 to 69.8
2 | SIV Nef M116, Q02840 1-223 (protein) MGSSNSKRQQQGLLKLWRGLRGKPGADWVLLSDPLIGQSSTVQEECGKALKKSWGKGKMTPDGRRLQEGDTFDEWDDDEEEVGFPVQPRVPLRQMTYKLAVDFSHFLKSKGGLDGIYYSERREKILNLYALNEWGIIDDWQAYSPGPGIRYPRVFGFCFKLVPVDLHEEARNCERHCAAHPAQMGEDPDGIDHGEVLVWKFDPKLAVEYRPDMFKDMHEHAKR | 44.6 to 64.9
